Values quoted from earlier work in PMC11335090.

Target: AXL (Homo sapiens) (UniProt P30530)
Sequence of UniProt P30530 (P30530 26-451): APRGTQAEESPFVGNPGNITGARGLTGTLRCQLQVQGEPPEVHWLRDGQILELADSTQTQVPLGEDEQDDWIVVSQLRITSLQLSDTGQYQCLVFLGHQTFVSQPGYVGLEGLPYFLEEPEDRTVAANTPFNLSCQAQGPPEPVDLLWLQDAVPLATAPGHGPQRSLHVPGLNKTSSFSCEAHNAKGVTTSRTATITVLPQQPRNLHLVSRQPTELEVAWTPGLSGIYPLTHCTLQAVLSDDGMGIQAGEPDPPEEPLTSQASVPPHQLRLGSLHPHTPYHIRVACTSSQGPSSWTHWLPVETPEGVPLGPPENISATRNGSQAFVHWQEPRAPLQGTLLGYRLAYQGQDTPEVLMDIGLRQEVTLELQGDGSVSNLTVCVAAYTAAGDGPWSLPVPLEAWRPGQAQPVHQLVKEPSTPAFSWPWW

Kd: 0.032 nM
Substance: GAS6 (from UniProt Q14393)
